Assay [1] has as its target T1, VHL-1 (Caenorhabditis elegans, UniProt Q19213).
T1 construct: made in house; host or cells: TNT rabbit reticulocyte lysate, IVTT
T1 sequence (Q19213 1-174): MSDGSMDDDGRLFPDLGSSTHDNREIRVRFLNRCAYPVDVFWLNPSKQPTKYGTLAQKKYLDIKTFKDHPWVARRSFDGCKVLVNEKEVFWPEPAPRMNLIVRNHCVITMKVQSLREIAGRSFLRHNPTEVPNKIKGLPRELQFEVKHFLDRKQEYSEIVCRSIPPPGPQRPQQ
The assay is described as follows: Peptide blocking of HIF-1 capture by HA.VHL-1 and capture of native VHL-1 by biotinylated peptides. The format is binding, C. elegans. The note with it: for blocking of capture of pretreated HIF-1 by HA.VHL-1: peptide 1 μM. As for the experimental part: For peptide blocking experiments peptides (final conc. 1 μM) were pre-incubated with VHL-1 for 15 min before addition to the interaction.
To test whether hydroxylation of the critical P621 residue in C. elegans HIF-1 could indeed promote binding to VHl-1, we synthesised N-terminal biotinylated peptides corresponding to residues 607-634 of C. elegans HIF-1 that contained either a proline (B28Pro) or a (2S, 4R)-trans-hydroxyproline residue (B28Hyp) at position 621.
Furthermore. […] Finally, to test the importance of prolyl hydroxylation in regulating C. elegans HIF-1 in vivo we exposed worms to the cell-penetrating prolyl hydroxylase inhibitor, dimethyloxalylglycine.

Assay [2] deals with HIF-α/pVHL interaction. The assay is described as follows: Interaction of HIF-1α and pVHL.HA reticulocyte IVTTs, anti-HA co-immunoprecipitation. The format is biochemical, human. The following applies: 100 μM added to the HIF-1α IVTT. As for the experimental part: ^35S-Methionine labelled […] subunits and pVHL.HA were produced separately by IVTT (in vitro transcription and translation) in reticulocyte lysates. IVTTs were performed under different conditions, mixed, and assayed for interaction by anti-HA co-immunoprecipitation. These in vitro assays allowed analysis of the HIFα/pVHL interaction using the recombinant proteins.
Labelled HIF-1α and pVHL.HA were generated separately in reticulocyte lysates (IVTT), in the presence or absence of Co (II), desferrioxamine, or Fe(II). Lysates were mixed in various combinations, and interactions assayed by anti-HA immunoprecipitation.
• 1. G. L. Semenza, Genes Dev 14, 1983-91. (2000). • 2. N. V. Iyer, et al., Genes Dev. 12, 149-162 (1997). • 3. E. Maltepe, J. V. Schmidt, D. Baunoch, C. A. Bradfield, M. C. Simon, Nature 386, 403-407 (1997). • 4. G. L. Wang, B.-H. Jiang, E. A. Rue, G. L. Semenza, Proc. Natl. Acad. Sci. USA 92, 5510-5514 (1995). • 5. S. Salceda, J. Caro, J. Biol. Chem. 272, 22642-22647 (1997). • 6. L. E. Huang, J. Gu, M. Schau, H. F. Bunn, Proc. Natl. Acad. Sci. USA 95, 7987-7992 (1998). • 7. M. S. Wiesener, et al., Blood 92, 2260-2268 (1998). • 8. P. H. Maxwell, et al., Nature 399, 271-275 (1999). • 9. K. Iwai, et al., Proc. Natl. Acad. Sci. USA 96, 12436-12441 (1999). • 10. J. Lisztwan, G. Imbert, C. Wirbelauer, M. Gstaiger, W. Krek, Genes Dev 13, 1822-33 (1999). • 11. M. E. Cockman, et al., J Biol Chem (2000). • 12. M. Ohh, et al., Nat Cell Biol 2, 423-7. (2000). • 13. T. Kamura, et al., Proc Natl Acad Sci USA 97, 10430-5. (2000). • 14. K. Tanimoto, Y. Makino, T. Pereira, L. Poellinger, Embo J 19, 4298-309. (2000). • 15. M. A. Goldberg, S. P. Dunning, H. F. Bunn, Science 242, 1412-1415 (1988). • 16. G. L. Wang, G. L. Semenza, Blood 82, 3610-3615 (1993). • 17. G. L. Semenza, Cell 98, 281-284 (1999). • 18. Hypoxia (<0.1% oxygen) was obtained in a workstation with O2, CO2 and temperature control (Ruskinn Technologies, Leeds, UK). For hypoxic harvest, buffers were preincubated in the chamber overnight. […]

Assay [3] relates to EGLN-2 and EGLN-3. The assay is described as follows: Modification and pVHL binding assay with reticulocyte lysate programmed with EGLN-2 or EGLN-3. The format is biochemical, human. The following applies: desferrioxamine 200 μM, cobaltous chloride 200 μM. The text has this: Protein containing HIF-1 sequence (amino acids 549-582) was generated in a reticulocyte in vitro transcription translation reaction in the presence of 100 micromolar desferrioxamine, retrieved and then exposed to […] translates containing the putative enzymes as described above. These proteins contain the critical proline (564) which can be modified by hydroxylation and which enables recognition by von Hippel Lindau tumour suppressor protein (pVHL).
The modification of the HIF-1 sequence was assayed by the binding of the HIF-1 to radiolabelled pVHL, generated by in vitro transcription and translation of a pcDNA3 vector containing the human wild type pVHL open reading frame in a rabbit reticulocyte lysate in the presence of ^35S-methionine.
Modification and pVHL binding assays were performed as described above. Rabbit reticulocyte lysate was programmed with pcDNA3 based plasmids containing no insert, an insert encoding the full open reading frame of the human homologue of C. elegans Egl-9 known as EGLN-2, or an insert encoding the full open reading frame of the human homologue known as EGLN-3. Modification was performed in the absence of additives, in the presence of oxalylglycine, oxalylglycine plus 2-oxoglutarate, 200 μM desferrioxamine or 200 μM cobaltous chloride.

The subject of assay [4] is C. elegans. Put plainly: Immunoblot of ceHIF (HIF-1) in extracts of treated worms. The note with it: 200 μM in liquid media, 6 or 16 hrs. The format is in vivo. As for the experimental part:
Immunoblots of ceHIF levels in extracts of c. elegans were carried out to monitor regulation by hypoxia and iron chelation. Firstly, the oxygen dependence of protein induction was analysed. Worms were grown on plates in bell jars flushed with air (N), or with oxygen/balance nitrogen having an oxygen concentration of 5%, 1%, 0.5% or 0.1% for 18 hrs. A graded increase in protein level was seen as the oxygen level was reduced below 5% with the highest level of induction at 0.5 and 0.1% oxygen concentration. The time course of protein induction was then studied. Worms were grown in bell jars flushed with a 0.1% oxygen/balance nitrogen mixture for 0, 4, 8, 16 or 24 hrs before preparation of extracts. […] The time course of protein decay on re-oxygenation was then assessed. Worms were grown in bell jars flushed with air (N) or a 0.1% oxygen/balance nitrogen mixture. Extracts were made either immediately, or after 4 and 8 minutes of re-oxygenation. Decay of ceHIF protein was very rapid on re-oxygenation. […] A time course RNAse protection assay showing cehif mRNA levels in worms exposed to 0.1% oxygen/balance nitrogen for 0, 4, 8, 16 and 24 hrs was carried out. No induction of ceHIF mRNA by hypoxia was seen. […] Induction by iron chelation was also studied in C. elegans. […]

Where no end group is shown, it is not given here. [ ]: non-standard residue; d: D form. The star is where a group is joined. Biotin = O=C1N[C@H]2[C@H](CS[C@H]2CCCCC(=O)*)N1; Hyp = O=C(O)[C@@H]1C[C@@H](O)CN1

Data on 4 compounds can be found in patent US9844546B2, “Antibody against human HIF hydroxylase” (OXFORD UNIVERSITY INNOVATION LIMITED, priority 2001, dated 2017).

As for “B28Hyp: N-terminal biotinylated peptide, residues 607-634 of C. elegans HIF-1, (2S, 4R)-trans-hydroxyproline at position 621 (Biotin-DDLQWEEPDLSCLA[Hyp]FVDTYDMMQMDEG)”, the “blocking of capture of pretreated HIF-1 by HA.VHL-1” value in assay [1] was “blocked capture”. For the same compound, in assay [1] (wild type but not vhl-1 mutant worms), the “capture of native VHL-1 from worm extracts” value is recorded as “captured immunodetectable native VHL-1”.
“B28Pro: N-terminal biotinylated peptide, residues 607-634 of C. elegans HIF-1, proline at position 621 (Biotin-DDLQWEEPDLSCLAPFVDTYDMMQMDEG)”: the “blocking of capture of pretreated HIF-1 by HA.VHL-1” value in assay [1] was “not”.
With `CC(=O)N(O)CCCCCNC(=O)CCC(=O)N(O)CCCCCNC(=O)CCC(=O)N(O)CCCCCN` [desferrioxamine], the “capture of HIF-1α by pVHL.HA” value in assay [2] was “greatly diminished capture”. Besides, the “Enzyme activity (modification of HIF-1 to VHL binding form)” value in assay [3] is “diminished”.
For `c1ccc(-c2ccccn2)nc1` [2′, 2′ dipyrridyl, reference compound], in assay [4], the ceHIF protein level result is “striking Induction of ceHIF”.
